Assay results reported in publication PMC9107513.

Columns and labels:
[1] = western blot, endogenous RYR1, C2C12 myotubes ± MG-132; conditions: glycan lost; control: vector / control siRNA
[2] = MS of immunoprecipitated endogenous RYR1, C2C12; conditions: glycan lost; control: control siRNA
[3] = IP of exogenous RYR1, phospho-Ser/Thr blot; conditions: glycan lost; control: control siRNA
[4] = western blot, exogenous wild-type RYR1 in C2C12; conditions: glycan lost; control: vector / control siRNA
[5] = IP of tagged RYR1, blot of tagged ubiquitin, MG-132; conditions: glycan lost; control: vector / control siRNA

Substance: RYR1: siRNA-mediated knockdown of OGT
- expression_or_secretion [1]: increases

Substance: RYR1: OGT knockdown
- other: phosphorylation at T4338 [2]: increases

Substance: human RYR1: OGT knockdown
- other: Ser/Thr phosphorylation [3]: increases
- expression_or_secretion [4]: increases
- other: ubiquitination [5]: decreases
